The text below walks through data of publication PMC3459862.

The target of the test is GST-WC-1 mini, LXXLL motif mutant (LAQLL changed to LAQAA) (Neurospora crassa) (UniProt Q01371). Put plainly: pull-down.
Chain of UniProt Q01371 (Q01371 838-1000, change not shown): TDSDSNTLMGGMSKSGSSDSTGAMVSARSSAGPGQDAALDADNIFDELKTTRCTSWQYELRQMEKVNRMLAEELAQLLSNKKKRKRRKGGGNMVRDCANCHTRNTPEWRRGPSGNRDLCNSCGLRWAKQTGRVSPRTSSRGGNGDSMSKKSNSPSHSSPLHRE

Take “S. cerevisiae Gcn5p, 35S-radiolabeled (from UniProt Q03330 1-439) (enzyme)”: the percent decrease of retained Gcn5p against WC-1 mini turned out to be 45%.
